Data taken from article PMC11848413, “Bacterial polysaccharide lyase family 33: Specificity from an evolutionarily conserved binding tunnel” (Proceedings of the National Academy of Sciences of the …, 2025).

Experiments:
[1] = target: BT4410 (BtPL33^HA), PL33_1 hyaluronidase from Bacteroides thetaiotaomicron VPI-5482 (Bacteroides thetaiotaomicron VPI-5482); assay: SEC-MALS + other: SAXS; SEC-coupled light scattering and SAXS of the purified enzyme in solution, oligomeric state; conditions not shown (SI Appendix)
[2] = target: the molecule itself; assay: as above

Row | Molecule | stoichiometry N [1] | stoichiometry N [2]
1 | BT4410 (BtPL33^HA), PL33_1 hyaluronidase from Bacteroides thetaiotaomicron VPI-5482 (enzyme) | 2 | 
2 | BcellWH2_04512 (BcPL33^HA), PL33_1 hyaluronidase from Bacteroides cellulosilyticus WH2 (enzyme, BcellWH2_04512, polysaccharide lyase family 33 subfamily 1 hyaluronidase of Bacteroides cellulosilyticus WH2; 68% identical to BtPL33^HA; Cloned in pET28a with either an N- or a C-terminal His6 tag; source: E. coli BL21 (DE3) or TUNER, purified (Talon cobalt IMAC, S200 Superdex SEC)) YTERNLLQKAAGSEEQLKEALVMNQKWVPYPAYNDRAGWNELLGTNKESLIRAGEKMLNYEWKVIRATDYLEYERSGERNIMQNPYEANRKAINALMLAELAEGKGRFIDQLINGAFYSCEMTSWVLSAHLVRQSTKRSLPDYREQVIDLGSGNFGSMLSWVYYFFHDSFDKIDPVISQRLRHTLQERILDPYMNNDREWWMAFQWKPGMIINNWNPWCNSNVLQCYLLLENDRDRLAKAVWRSMQSVDKFINFVKADGACEEGPSYWGHAAGKMYDYLQILSDGTDGKVSLFKEPMIRRMGEYISRTYVGNGWVVNFADASAKGGGDAPLIYRYGRAVGSEEMMQFAAYLLDGKRPSVPLGNDTFRSLQSILWNGELEKTTAAHTIPACTWYPETEFCYLTNKSGWFLATKGGFNNESHNHNDVGTFSLYVNTIPVLIDAGVGTYTRQTFSSERYTIWTMQSNYHNLPMINGVPQSFGQNYKATDVVCQPKKRFFSANIATAYPKEAEVNSWTRAYSLGDKQLTITDNFSLKSAKESNQVNFLTWGKVDISVPGKVTIDVQGQKVTLEYPGEFTATVETINLPDTRLSNVWGTEIYRIALKDKDARLTGKYKFVIK |  | 2
3 | HMPREF1181_01744 (BsPL33^Heparosan), PL33_1 heparosanase from Bacteroides stercoris CC31F (enzyme) TERHLLEQTVSYEELGNVLRYRQSWVDYPAYTDRKSWKEKTAPEMRELIIRNGERALKHEWKPDLASDYLAFKRTGEIRTGRANHKALQALTLAELVEGQGRFMDAIIDGIWFLCETSWIHSAHLGFQKDRSGLPDRNEPTIELVVADIGAQMAWTYYFLKDEFDKVSPLINERIIEEVNRNLINPYFARDDYWWMGFGGQQVNNWNPWINYNVLQALMLIEKDPERVRQGVWKLMKSTDFFFSMYHEDGACDEGPTYWSGASGYALKFLDLLAKVTGNKVNIFNAPLLRNMAQYIYRVHIGGNYFVNFADSAPKVSPSPGILYRYGELTGDPAMMKFASFMAQQNQSFKDGVNGYFASALDELFMYKDIIGHPQGEPLTGTYWFKDTQICVARDTEGKSDGFFFAAKGGNNQESHNHNDVGSCILYYNALPVLIDAGVGTYTRQTFGPERYTIWTMQSDYHNLPLINGTPQKNGREFAAHSQQYKATAKTVSYQVDIAHAYPQEANVKSWIRNYTLHRKKDFTITDKWKLSACNEPSVLNLMTCCEVEIDRNKNITLTGEAGRFRVEYDKKLLSPATDTVELTDPKLIHSWNRKKLTRIRFTIVSQQISGESKLVIRKAQYHKTLND |  | 2
